Test results as given in patent US7419669B2, “Peptide epitopes common to antigens of the same multigene family” (Institut Gustave Roussy, priority 2002, dated 2008).
Where no end group is shown, it is not given here.

Assays:
HHD transgenic mice = assay: Induction of specific CTLs in HHD transgenic mice by immunization with variant MAGE-A peptides; 51Cr cytotoxicity on peptide-loaded RMAS-HHD targets; format: in vivo
Procedure: The immunogenicity of the variant peptides p174Y1V10, p262L2 and p248V9 was evaluated by generation of CTLs on HHD transgenic mice (PASCOLO et al., J. Exp. Med., 185, 2043, 1997). These mice are β2m−/−, D^b−/− and express an HLA-A*0201 single chain made up of the α1 and α2 domains of HLA-A*0201 and the α3 and intracellular domains of D^b, linked via its N-terminal to the C-terminal of human β2-microglobulin, via a peptide of 15 amino acids.
The HHD mice are given a subcutaneous injection at the base of the tail with 100 μg of each variant peptide to be tested, emulsified in Freund's incomplete adjuvant, in the presence of 140 μg of a T-helper epitope derived from the HBV “core” antigen (128-140, sequence […]).
After 11 days, spleen cells taken from the mice (5×10^7 cells in 10 ml) are stimulated in vitro with the test peptide (10 μM). On the 6th day of culture, the populations which respond are tested in order to determine a specific cytotoxicity. The cells which respond are restimulated in vitro at one-week intervals with 2×10^7 irradiated (3000 rads) HHD spleen cells and 1 to 0.1 μM of peptide in the presence of 50 IU/ml of recombinant IL2 (Proleukin, Chiron Corp).
Cytotoxicity assays are carried out 6 days after the final stimulation.
RMAS-HHD cells are used as targets to study the cytotoxicity. The cells are obtained by transfection of murine RMAS cells with the HHD construct as described by PASCOLO et al. (J. Exp. Med., 185, 2043, 1997).
These target cells are labeled with 100 μCi of ^51Cr for 90 minutes, and then washed three times and plated out in round-bottomed 96-well plates (3×10^3 cells/well in 100 μl of RPMI 1640+3% of fetal calf serum). They are loaded with various concentrations of test peptide (variant, native peptide, or irrelevant control peptide), at 37° C. for 90 minutes.
Next, 100 μl of the effector cells (effector cell/target cell ratio=40/1) are added to the wells and the plates are incubated at 37° C. for 4 hours. After incubation, 100 μl of supernatant are collected and the radioactivity is measured in a γ-counter.
The percentage of specific lysis is calculated by means of the formula: [(experimental ^51Cr release−spontaneous ^51Cr release)/(maximum ^51Cr release−spontaneous ^51Cr release)]×100. In all the experiments, the spontaneous release is less than 20% of the maximum release induced with 3N HCl.

[1] = target: T1, HLA-A*0201/peptide complexes (Homo sapiens, UniProt P04439, D140Y/D185E/D98H/E176V/E277Q/G131W/G231S/I119V/I121R/I166T/I218V/L300P/L318F/N151K/N90K/P208A/P217A/Q86G/Q94H/R138H/R169H/T345S); assay: Stability of peptide/HLA-A*0201 complexes on T2 cells (DC50); format: binding
T1 construct: prevent the expression at their surface of newly synthesized HLA-A*0201 molecules; endogenous in cells; host or cells: human T2 cells (TAP-deficient)
Procedure: (§1) The affinity of the selected peptides for HLA-A*0201 was defined by two parameters: the relative affinity (RA); which reflects the ability of the peptides to bind to HLA-A*0201, and the rate of dissociation of the HLA-A*0201/peptide complexes (DC50), which reflects their stability. The peptides with high affinity (RA<5 and DC50>2 hours) are potentially immunogenic, unlike the peptides with low affinity (RA>5 and DC50<2 hours).
T2 cells (10^6/ml) are incubated overnight at 37° C. with 100 μM of each test peptide in serum-free RPMI 1640 medium supplemented with 100 ng/ml of human β2-microglobulin. Next, they are washed four times in order to remove the free peptides, incubated with Brefeldin A (SIGMA; 10 μg/ml) for one hour in order to prevent the expression at their surface of newly synthesized HLA-A*0201 molecules, washed and incubated at 37° C. for 0, 2, 4, 6 or 8 hours. For each incubation time, the cells are then labeled, as indicated above, with the BB7.2 antibody, and analyzed by flow cytometry in order to evaluate the amount of peptide/HLA-A*0201 complex present at their surface. This amount is evaluated by means of the formula: (mean fluorescence of the T2 cells preincubated with the peptide−mean fluorescence of the T2 cells treated under similar conditions in the absence of peptide). […]

HLA-A*0201 = target: T2, HLA-A*0201 (Homo sapiens, UniProt P04439, D140Y/D185E/D98H/E176V/E277Q/G131W/G231S/I119V/I121R/I166T/I218V/L300P/L318F/N151K/N90K/P208A/P217A/Q86G/Q94H/R138H/R169H/T345S); assay: Relative affinity (RA) of peptides for HLA-A*0201 on T2 cells, flow cytometry with BB7.2; format: binding; conditions: low affinity = RA>5 and DC50<2 hours
T2 construct: prevent the expression at their surface of newly synthesized HLA-A*0201 molecules; endogenous in cells; host or cells: human T2 cells (TAP-deficient)
Procedure: as §1
Human T2 cells (FIRAT et al., Eur. J. Immunol., 29, 3112, 1999) (3×10^5 cells/ml), which are deficient in TAP transporters, are incubated at 37° C. for 16 hours with various concentrations (100 μM, 10 μM, 1 μM, 0.1 μM) of each test peptide in serum-free RPMI 1640 medium supplemented with 100 ng/ml of human β2-microglobulin. Next, they are washed twice and labeled with the monoclonal antibody BB7.2 (PARHAM et al., Hum. Immunol., 3, 4, 277-299, 1981) which is specific for the HLA-A*0201 molecule, and then with a goat anti-mouse Ig antibody coupled to fluorescein isothiocyanate (FITC).
The cells are then analyzed by flow cytometry. For each concentration of peptide, the specific HLA-A*0201 fluorescence is calculated as a percentage of the fluorescence obtained with 100 μM of a reference peptide (HIVpol 589; […] (SEQ ID No: 1)). The relative affinity (RA) is defined as the ratio of the concentration of each peptide that induces 20% of the fluorescence obtained with 100 μM of the reference peptide, to the concentration of the reference peptide that induces 20% of the fluorescence obtained with 100 μM of said reference peptide. The lower the relative affinity, the stronger the binding of the peptide to HLA-A*0201. The mean RA for each peptide is determined from at least three independent experiments. In all the experiments, 20% of the maximum fluorescence was obtained for 1 to 3 μM of the reference peptide.
The relative affinity (RA) of the selected variant peptides for HLA-A*0201 was measured as described in example 1.

## YEFLWGPRA (listed as Homo sapiens) [p262]
HHD transgenic mice; native peptide loaded on targets
  recognition of RMAS-HHD targets loaded with the native peptide by CTLs induced with the corresponding variant: not
[1]; T2 cells loaded with 100 μM peptide, 37° C., 0-8 hours
  DC50 (time required for loss of 50% of HLA-A*0201/peptide complexes): <2 h
HLA-A*0201
  affinity for HLA-A*0201 (in words): low affinity

## YLGLSYDGLV (not fully specified) [p174Y1V10]
HHD transgenic mice; HHD mice, 100 μg s.c. in Freund's incomplete adjuvant, RMAS-HHD targets, effector/target 40/1
  CTL response generated by immunization with the variant peptide: not capable of generating a CTL response
[1]
  stability of the complex formed with HLA-A*0201 (in words): appears to be insufficient
